Measured values as given in paper PMC5916030.

Columns and labels:
[1] = biological target: anthrax lethal factor (LF) (Bacillus anthracis, UniProt P15917 34-809); assay: […]) immobilized in 20 mM HEPES pH 7.4, […]
Target sequence in this assay (P15917 34-809): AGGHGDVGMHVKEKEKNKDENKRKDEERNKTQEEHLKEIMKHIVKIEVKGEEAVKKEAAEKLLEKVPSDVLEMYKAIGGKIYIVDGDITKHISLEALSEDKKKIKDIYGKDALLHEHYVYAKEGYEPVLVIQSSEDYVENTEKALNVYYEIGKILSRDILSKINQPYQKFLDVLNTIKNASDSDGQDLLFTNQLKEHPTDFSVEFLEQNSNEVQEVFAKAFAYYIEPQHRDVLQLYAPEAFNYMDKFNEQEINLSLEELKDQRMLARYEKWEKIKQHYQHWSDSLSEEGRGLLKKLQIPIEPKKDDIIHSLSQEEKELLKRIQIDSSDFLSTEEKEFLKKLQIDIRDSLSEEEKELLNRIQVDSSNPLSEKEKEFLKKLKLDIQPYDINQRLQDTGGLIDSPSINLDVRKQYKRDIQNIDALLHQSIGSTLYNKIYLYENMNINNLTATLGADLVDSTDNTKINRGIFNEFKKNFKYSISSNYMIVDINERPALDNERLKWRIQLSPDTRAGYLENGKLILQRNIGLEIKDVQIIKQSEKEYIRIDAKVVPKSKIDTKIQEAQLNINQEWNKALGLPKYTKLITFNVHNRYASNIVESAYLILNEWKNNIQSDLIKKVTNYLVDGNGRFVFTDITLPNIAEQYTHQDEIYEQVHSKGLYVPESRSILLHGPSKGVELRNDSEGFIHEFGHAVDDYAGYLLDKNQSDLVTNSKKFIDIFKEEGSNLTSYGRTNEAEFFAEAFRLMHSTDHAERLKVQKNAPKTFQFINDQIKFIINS

[2] = biological target: anthrax lethal factor (LF) (Bacillus anthracis, UniProt P15917 34-809); assay: aptamer ELISA
Target sequence in this assay (P15917 34-809): as above

Binder	binding result [1]	binding result [2]
GGACCAGCCGCCGCGCCTTGACCGGGGGTA (ssDNA) [ML6]	no binding	
GGAGAGAGGGAGACGCGCAACCTCGACCCGT (ssDNA) [ML7]	no binding	
CGCACTGAAGTGGGATACCGCCTAAACGGA (ssDNA) [scramble 30-mer]		no binding
